Experiments:
HeLa Kyoto [1] = experiment: solubility in G1/S (NP-40 vs SDS abundance) (log2 ratio); higher = more soluble; settings: cell cycle stage: G1/S
HeLa Kyoto [2] = experiment: melting temperature (median over replicates), in situ; higher = more thermally stable
HeLa Kyoto [3] = experiment: solubility change mitosis vs G1/S (difference of NP-40 vs SDS log2 ratios) (log2 ratio difference); higher = more soluble in mitosis
HeLa Kyoto [4] = experiment: thermal stability score vs G1/S (z-score of summed log2 fold changes over temperatures); higher = more thermally stable than in G1/S
[5] = cell cycle stage: early G1 (4.5 h after nocodazole release)
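Throughout, for melting temperature (median over replicates), in situ: HeLa Kyoto cells synchronized by double thymidine or nocodazole block, proteins quantified by TMT10plex mass spectrometry, three independent biological replicates.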
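Throughout, for solubility change mitosis vs G1/S (difference of NP-40 vs SDS log2 ratios): synchronized HeLa Kyoto cells (double thymidine block for G1/S, nocodazole release for mitosis), protein amounts in NP-40 versus SDS lysates quantified by mass spectrometry, three biological replicates.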
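Throughout, for solubility in G1/S (NP-40 vs SDS abundance): HeLa Kyoto cells arrested at G1/S by double thymidine block, proteins quantified by TMT10plex mass spectrometry in mild NP-40 versus SDS extracts, three biological replicates.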
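Throughout, for thermal stability score vs G1/S (z-score of summed log2 fold changes over temperatures): synchronized HeLa Kyoto cells, proteins quantified by TMT10plex mass spectrometry, three biological replicates, mitosis taken 0.5 h after nocodazole release, G1/S directly after double thymidine block.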

Substance | solubility in G1/S (log2) (HeLa Kyoto [1]) | melting temperature (HeLa Kyoto [2]; cell cycle stage: G1/S) | melting temperature (HeLa Kyoto [2]; cell cycle stage: mitosis) | solubility change mitosis (log2) (HeLa Kyoto [3]) | thermal stability score (HeLa Kyoto [4]; [5]) | thermal stability score (HeLa Kyoto [4]; cell cycle stage: mitosis)
MEFLKTCVLRRNACTAVCFWRSKVVQKPSVRRISTTSPRSTVMPAWVIDKYGKNEVLRFTQNMMMPIIHYPNEVIVKVHAASVNPIDVNMRSGYGATALNMKRDPLHVKIKGEEFPLTLGRDVSGVVMECGLDVKYFKPGDEVWAAVPPWKQGTLSEFVVVSGNEVSHKPKSLTHTQAASLPYVALTAWSAINKVGGLNDKNCTGKRVLILGASGGVGTFAIQVMKAWDAHVTAVCSQDASELVRKLGADDVIDYKSGSVEEQLKSLKPFDFILDNVGGSTETWAPDFLKKWSGATYVTLVTPFLLNMDRLGIADGMLQTGVTVGSKALKHFWKGVHYRWAFFMASGPCLDDIAELVDAGKIRPVIEQTFPFSKVPEAFLKVERGHARGKTVINVV [RTN4IP1] | -0.119 | 50.7 °C | 51.7 °C | -0.0156 | 0.632 | 1.04
CHD3 | -0.643 | 46.5 °C | 49.1 °C | 0.14 | 0.67 | 1.73
MSKSLKKLVEESREKNQPEVDMSDRGISNMLDVNGLFTLSHITQLVLSHNKLTMVPPNIAELKNLEVLNFFNNQIEELPTQISSLQKLKHLNLGMNRLNTLPRGFGSLPALEVLDLTYNNLSENSLPGNFFYLTTLRALYLSDNDFEILPPDIGKLTKLQILSLRDNDLISLPKEIGELTQLKELHIQGNRLTVLPPELGNLDLTGQKQVFKAENNPWVTPIADQFQLGVSHVFEYIRSETYKYLYGRHMQANPEPPKKNNDKSKKISRKPLAAKNR [RSU1] | 0.389 | 50.3 °C | 52.9 °C | 0.203 | -0.646 | -1.96
MTGNAGEWCLMESDPGVFTELIKGFGCRGAQVEEIWSLEPENFEKLKPVHGLIFLFKWQPGEEPAGSVVQDSRLDTIFFAKQVINNACATQAIVSVLLNCTHQDVHLGETLSEFKEFSQSFDAAMKGLALSNSDVIRQVHNSFARQQMFEFDTKTSAKEEDAFHFVSYVPVNGRLYELDGLREGPIDLGACNQDDWISAVRPVIEKRIQKYSEGEIRFNLMAIVSDRKMIYEQKIAELQRQLAEEEPMDTDQGNSMLSAIQSEVAKNQMLIEEEVQKLKRYKIENIRRKHNYLPFIMELLKTLAEHQQLIPLVEKAKEKQNAKKAQETK [UCHL5] | 0.533 | 48.7 °C | 48.9 °C | -0.0948 | 1.19 | 2.51
MSSEPPPPPQPPTHQASVGLLDTPRSRERSPSPLRGNVVPSPLPTRRTRTFSATVRASQGPVYKGVCKCFCRSKGHGFITPADGGPDIFLHISDVEGEYVPVEGDEVTYKMCSIPPKNEKLQAVEVVITHLAPGTKHETWSGHVISS [CARHSP1] | 0.691 | 54.7 °C | 55.2 °C | 0.089 | -0.479 | -0.699
MAASMARRLWPLLTRRGFRPRGGCISNDSPRRSFTTEKRNRNLLYEYAREGYSALPQLDIERFCACPEEAAHALELRKGELRSADLPAIISTWQELRQLQEQIRSLEEEKAAVTEAVRALLANQDSGEVQQDPKYQGLRARGREIRKELVHLYPREAQLEEQFYLQALKLPNQTHPDVPVGDESQARVLHMVGDKPVFSFQPRGHLEIGEKLDIIRQKRLSHVSGHRSYYLRGAGALLQHGLVNFTFNKLLRRGFTPMTVPDLLRGAVFEGCGMTPNANPSQIYNIDPARFKDLNLAGTAEVGLAGYFMDHTVAFRDLPVRMVCSSTCYRAETNTGQEPRGLYRVHHFTKVEMFGVTGPGLEQSSQLLEEFLSLQMEILTELGLHFRVLDMPTQELGLPAYRKFDIEAWMPGRGRFGEVTSASNCTDFQSRRLHIMFQTEAGELQFAHTVNATACAVPRLLIALLESNQQKDGSVLVPPALQSYLGTDRITAPTHVPLQYIGPNQPRKPGLPGQPAVS [SARS2] | 0.265 | 51.5 °C | 51.4 °C | -0.148 | 2.24 | 1.72
MATCAEILRSEFPEIDGQVFDYVTGVLHSGSADFESVDDLVEAVGELLQEVSGDSKDDAGIRAVCQRMYNTLRLAEPQSQGNSQVLLDAPIQLSKITENYDCGTKLPGLLKREQSSTVNAKKLEKAEARLKAKQEKRSEKDTLKTSNPLVLEEASASQAGSRKESRLESSGKNKSYDVRIENFDVSFGDRVLLAGADVNLAWGRRYGLVGRNGLGKTTLLKMLATRSLRVPAHISLLHVEQEVAGDDTPALQSVLESDSVREDLLRRERELTAQIAAGRAEGSEAAELAEIYAKLEEIEADKAPARASVILAGLGFTPKMQQQPTREFSGGWRMRLALARALFARPDLLLLDEPTNMLDVRAILWLENYLQTWPSTILVVSHDRNFLNAIATDIIHLHSQRLDGYRGDFETFIKSKQERLLNQQREYEAQQQYRQHIQVFIDRFRYNANRASQVQSKLKMLEKLPELKPVDKESEVVMKFPDGFEKFSPPILQLDEVDFYYDPKHVIFSRLSVSADLESRICVVGENGAGKSTMLKLLLGDLAPVRGIRHAHRNLKIGYFSQHHVEQLDLNVSAVELLARKFPGRPEEEYRHQLGRYGISGELAMRPLASLSGGQKSRVAFAQMTMPCPNFYILDEPTNHLDMETIEALGRALNNFRGGVILVSHDERFIRLVCRELWVCEGGGVTRVEGGFDQYRALLQEQFRREGFL [ABCF3] | 0.0738 | 47.9 °C | 47.9 °C | -0.0928 | 1.82 | 3.62
MSFPKAPLKRFNDPSGCAPSPGAYDVKTLEVLKGPVSFQKSQRFKQQKESKQNLNVDKDTTLPASARKVKSSESKESQKNDKDLKILEKEIRVLLQERGAQDRRIQDLETELEKMEARLNAALREKTSLSANNATLEKQLIELTRTNELLKSKFSENGNQKNLRILSLELMKLRNKRETKMRGMMAKQEGMEMKLQVTQRSLEESQGKIAQLEGKLVSIEKEKIDEKSETEKLLEYIEEISCASDQVEKYKLDIAQLEENLKEKNDEILSLKQSLEENIVILSKQVEDLNVKCQLLEKEKEDHVNRNREHNENLNAEMQNLKQKFILEQQEREKLQQKELQIDSLLQQEKELSSSLHQKLCSFQEEMVKEKNLFEEELKQTLDELDKLQQKEEQAERLVKQLEEEAKSRAEELKLLEEKLKGKEAELEKSSAAHTQATLLLQEKYDSMVQSLEDVTAQFESYKALTASEIEDLKLENSSLQEKAAKAGKNAEDVQHQILATESSNQEYVRMLLDLQTKSALKETEIKEITVSFLQKITDLQNQLKQQEEDFRKQLEDEEGRKAEKENTTAELTEEINKWRLLYEELYNKTKPFQLQLDAFEVEKQALLNEHGAAQEQLNKIRDSYAKLLGHQNLKQKIKHVVKLKDENSQLKSEVSKLRCQLAKKKQSETKLQEELNKVLGIKHFDPSKAFHHESKENFALKTPLKEGNTNCYRAPMECQESWK [HMMR] | 0.497 | 49.2 °C | 50.1 °C | 0.189 | -0.359 | -1.33
MADEALAGLDEGALRKLLEVTADLAERRRIRSAIRELQRQELEREEEALASKRFRAERQDNKENWLHSQQREAEQRAALARLAGQLESMNDVEELTALLRSAGEYEERKLIRAAIRRVRAQEIEAATLAGRLYSGRPNSGSREDSKGLAAHRLEQCEVPEREEQEQQAEVSKPTPTPEGTSQDVTTVTLLLRAPPGSTSSSPASPSSSPTPASPEPPLEPAEAQCLTAEVPGSPEPPPSPPKTTSPEPQESPTLPSTEGQVVNKLLSGPKETPAAQSPTRGPSDTKRADVAGPRPCQRSLSVLSPRQPAQNRESTPLASGPSSFQRAGSVRDRVHKFTSDSPMAARLQDGTPQAALSPLTPARLLGPSLTSTTPASSSSGSSSRGPSDTSSRFSKEQRGVAQPLAQLRSCPQEEGPRGRGLAARPLENRAGGPVARSEEPGAPLPVAVGTAEPGGSMKTTFTIEIKDGRGQASTGRVLLPTGNQRAELTLGLRAPPTLLSTSSGGKSTITRVNSPGTLARLGSVTHVTSFSHAPPSSRGGCSIKMEAEPAEPLAAAVEAANGAEQTRVNKAPEGRSPLSAEELMTIEDEGVLDKMLDQSTDFEERKLIRAALRELRQRKRDQRDKERERRLQEARGRPGEGRGNTATETTTRHSQRAADGSAVSTVTKTERLVHSNDGTRTARTTTVESSFVRRSENGSGSTMMQTKTFSSSSSSKKMGSIFDREDQASPRAGSLAALEKRQAEKKKELMKAQSLPKTSASQARKAMIEKLEKEGAAGSPGGPRAAVQRSTSFGVPNANSIKQMLLDWCRAKTRGYEHVDIQNFSSSWSDGMAFCALVHNFFPEAFDYGQLSPQNRRQNFEVAFSSAEMLVDCVPLVEVDDMMIMGKKPDPKCVFTYVQSLYNHLRRHELRLRGKNV [SMTN] | -0.058 | 48.9 °C | 50 °C | 0.208 | 0.326 | 0.869
MLSLQYPDVYRDETAVQDYHGHKICDPYAWLEDPDSEQTKAFVEAQNKITVPFLEQCPIRGLYKERMTELYDYPKYSCHFKKGKRYFYFYNTGLQNQRVLYVQDSLEGEARVFLDPNILSDDGTVALRGYAFSEDGEYFAYGLSASGSDWVTIKFMKVDGAKELPDVLERVKFSCMAWTHDGKGMFYNSYPQQDGKSDGTETSTNLHQKLYYHVLGTDQSEDILCAEFPDEPKWMGGAELSDDGRYVLLSIREGCDPVNRLWYCDLQQESSGIAGILKWVKLIDNFEGEYDYVTNEGTVFTFKTNRQSPNYRVINIDFRDPEESKWKVLVPEHEKDVLEWIACVRSNFLVLCYLHDVKNILQLHDLTTGALLKTFPLDVGSIVGYSGQKKDTEIFYQFTSFLSPGIIYHCDLTKEELEPRVFREVTVKGIDASDYQTVQIFYPSKDGTKIPMFIVHKKGIKLDGSHPAFLYGYGGFNISITPNYSVSRLIFVRHMGGILAVANIRGGGEYGETWHKGGILANKQNCFDDFQCAAEYLIKEGYTSPKRLTINGGSNGGLLVAACANQRPDLFGCVIAQVGVMDMLKFHKYTIGHAWTTDYGCSDSKQHFEWLVKYSPLHNVKLPEADDIQYPSMLLLTADHDDRVVPLHSLKFIATLQYIVGRSRKQSNPLLIHVDTKAGHGAGKPTAKVIEEVSDMFAFIARCLNVDWIP [PREP] | 0.00417 | 49.3 °C | 49.5 °C | -0.186 | -0.0879 | 0.619
MPLENLEEEGLPKNPDLRIAQLRFLLSLPEHRGDAAVRDELMAAVRDNNMAPYYEALCKSLDWQIDVDLLNKMKKANEDELKRLDEELEDAEKNLGESEIRDAMMAKAEYLCRIGDKEGALTAFRKTYDKTVALGHRLDIVFYLLRIGLFYMDNDLITRNTEKAKSLIEEGGDWDRRNRLKVYQGLYCVAIRDFKQAAELFLDTVSTFTSYELMDYKTFVTYTVYVSMIALERPDLREKVIKGAEILEVLHSLPAVRQYLFSLYECRYSVFFQSLAVVEQEMKKDWLFAPHYRYYVREMRIHAYSQLLESYRSLTLGYMAEAFGVGVEFIDQELSRFIAAGRLHCKIDKVNEIVETNRPDSKNWQYQETIKKGDLLLNRVQKLSRVINM [PSMD6] | -0.15 | 53.3 °C | 53.2 °C | -0.189 | 1 | 1.09
SBF1 | -0.118 | 50.9 °C | 50.4 °C | -0.108 | 0.301 | -0.247
MAPLLLQLAVLGAALAAAALVLISIVAFTTATKMPALHRHEEEKFFLNAKGQKETLPSIWDSPTKQLSVVVPSYNEEKRLPVMMDEALSYLEKRQKRDPAFTYEVIVVDDGSKDQTSKVAFKYCQKYGSDKVRVITLVKNRGKGGAIRMGIFSSRGEKILMADADGATKFPDVEKLEKGLNDLQPWPNQMAIACGSRAHLEKESIAQRSYFRTLLMYGFHFLVWFLCVKGIRDTQCGFKLFTREAASRTFSSLHVERWAFDVELLYIAQFFKIPIAEIAVNWTEIEGSKLVPFWSWLQMGKDLLFIRLRYLTGAWRLEQTRKMN [ALG5] | -0.514 | 53 °C | 53.8 °C | -0.147 | -0.322 | -1.32
